# Values quoted from earlier work, collected in article PMC11431639.
# How the values were obtained:
# [1] = molecular target: INF2 DAD (Homo sapiens) (UniProt Q27J81)
# [2] = molecular target: mDia1 DAD (Mus musculus) (UniProt O08808)
# Sequence of mDia1 DAD (Mus musculus) (O08808 1174-1208): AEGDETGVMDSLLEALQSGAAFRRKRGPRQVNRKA
# Sequence of INF2 DAD (Homo sapiens) (Q27J81 971-1000): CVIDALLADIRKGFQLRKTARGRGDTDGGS
# Sequence of INF2 DID (Q27J81 32-261): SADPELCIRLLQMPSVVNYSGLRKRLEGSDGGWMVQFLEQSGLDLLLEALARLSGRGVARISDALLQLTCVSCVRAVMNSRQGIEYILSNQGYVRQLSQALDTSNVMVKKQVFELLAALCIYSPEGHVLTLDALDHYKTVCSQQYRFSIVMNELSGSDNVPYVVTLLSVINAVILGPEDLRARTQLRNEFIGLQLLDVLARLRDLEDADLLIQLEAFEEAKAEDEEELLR
# Sequence of mDia1 DID (O08808 129-369): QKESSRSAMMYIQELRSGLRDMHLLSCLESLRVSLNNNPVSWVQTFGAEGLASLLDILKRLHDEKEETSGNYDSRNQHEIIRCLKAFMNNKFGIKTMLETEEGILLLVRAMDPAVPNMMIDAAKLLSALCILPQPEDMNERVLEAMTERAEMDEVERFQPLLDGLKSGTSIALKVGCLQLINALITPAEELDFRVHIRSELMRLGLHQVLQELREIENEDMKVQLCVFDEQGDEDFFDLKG
Substance,Kd [1] [nM],Kd [2] [nM]
INF2 DID (from UniProt Q27J81),1100,
mDia1 DID (from UniProt O08808),,280
